Test results taken from patent US20180071385A1 (LEIDOS, published 2018).

Biological target: human PD-1 on Jurkat cells (human, UniProt Q15116 25-288)
Assay: cell-based or functional assay

Chain of human PD-1 on Jurkat cells (Q15116 25-288): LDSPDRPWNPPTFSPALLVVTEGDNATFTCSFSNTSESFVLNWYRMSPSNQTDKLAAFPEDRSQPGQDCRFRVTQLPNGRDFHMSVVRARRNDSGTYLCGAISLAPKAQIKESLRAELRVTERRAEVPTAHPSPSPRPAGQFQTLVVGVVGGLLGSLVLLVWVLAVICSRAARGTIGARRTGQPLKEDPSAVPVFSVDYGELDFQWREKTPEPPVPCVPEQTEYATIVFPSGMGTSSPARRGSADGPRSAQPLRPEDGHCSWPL

EC50 (read off the curve), Fold Inhibition of RLU: ~8 µM
Binder: QTRTVPMPKIHHPPWQNVVP [peptide QP20]
